# Test results as given in article PMC3897721, “Structure of Utp21 Tandem WD Domain Provides Insight into the Organization of the UTPB Complex Involved in Ribosome Synthesis” (PLoS ONE, 2014).
# T1: Utp21 1–684 (tandem WD domain, GST-tag cleaved) (yeast (S. cerevisiae), UniProt Q06078 1-684)
# T1 construct: The methods say only 'purified as described above' for the protein of the pull-down; also called tandem WD domain of Utp21; source: E. coli BL21(DE3), purified (Glutathione Sepharose, on-bead PreScission cleavage, Superdex 200); not shown: GST, N-terminal, cleaved
# T1 sequence (looked up): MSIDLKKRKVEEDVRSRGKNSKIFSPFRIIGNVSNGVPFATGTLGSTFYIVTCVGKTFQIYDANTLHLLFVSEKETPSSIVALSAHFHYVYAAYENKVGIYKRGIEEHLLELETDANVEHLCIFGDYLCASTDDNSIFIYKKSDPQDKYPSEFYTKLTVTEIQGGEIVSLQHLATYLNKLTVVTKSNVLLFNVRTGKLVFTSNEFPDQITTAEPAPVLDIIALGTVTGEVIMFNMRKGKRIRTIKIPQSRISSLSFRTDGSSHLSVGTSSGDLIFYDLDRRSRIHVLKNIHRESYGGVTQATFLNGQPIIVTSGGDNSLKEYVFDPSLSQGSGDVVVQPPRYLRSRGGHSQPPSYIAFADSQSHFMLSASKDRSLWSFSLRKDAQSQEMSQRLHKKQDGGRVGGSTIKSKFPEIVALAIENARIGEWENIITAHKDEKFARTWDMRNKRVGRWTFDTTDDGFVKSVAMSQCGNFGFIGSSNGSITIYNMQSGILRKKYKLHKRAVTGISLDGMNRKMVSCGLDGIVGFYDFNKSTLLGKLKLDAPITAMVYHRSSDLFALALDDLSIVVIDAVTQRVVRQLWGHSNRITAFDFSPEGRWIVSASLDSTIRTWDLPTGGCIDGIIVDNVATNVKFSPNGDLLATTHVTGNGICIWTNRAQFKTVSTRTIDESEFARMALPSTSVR
# Target: T1, Utp21 1–684 (tandem WD domain, GST-tag …)
# Assay: pull-down; His6-Smt3-tagged Utp18 fragments (0.95 nmol) incubated with Utp21 1–684 (1.9 nmol) 2 h at 4°C, bound to Ni Sepharose beads; washed with 25 mM Tris-HCl pH 7.6, 500 mM NaCl, 10 mM imidazole; SDS-PAGE, Coomassie
# Conditions: both partners purified
row,binding result,Binder
1,binds,"EDTMDVDDEDDSSSDDYSEDSEEAAWIDSDDEKIKVPILV (domain or fragment, yeast (S. cerevisiae), UniProt P40362 100-139, looked up, Utp18, yeast (S. cerevisiae), residues 100–139; source: expressed from pET28a, purified (HisTrap and Q chromatography); not shown: His6, N-terminal, kept; Smt3, N-terminal, kept) [His6-Smt3-Utp18 100–139]"
2,binds,"His6-Smt3-Utp18 139–190 (domain or fragment, yeast (S. cerevisiae), UniProt P40362 139-190, looked up, Utp18, yeast (S. cerevisiae), residues 139–190; source: expressed from pET28a, purified (HisTrap and Q chromatography); not shown: His6, N-terminal, kept; Smt3, N-terminal, kept) VTNKTKKLRTSYNESKINGVHYINRLRSQFEKIYPRPKWVDDESDSELDDEE"
3,binds,"His6-Smt3-Utp18 100–190 (domain or fragment, yeast (S. cerevisiae), UniProt P40362 100-190, looked up, Utp18, yeast (S. cerevisiae), residues 100–190; source: expressed from pET28a, purified (HisTrap and Q chromatography); not shown: His6, N-terminal, kept; Smt3, N-terminal, kept) EDTMDVDDEDDSSSDDYSEDSEEAAWIDSDDEKIKVPILVTNKTKKLRTSYNESKINGVHYINRLRSQFEKIYPRPKWVDDESDSELDDEE"
